Here are results for one substance from patent publication US7527954.

For this assay, the target named is biotinylated Calmodulin-binding peptide, biotin-…. In words: model selection from a 4200:1 mixture (ED-B:Calmodulin templates) on peptide-coated magnetic beads; 35-cycle PCR, 1:10^5 dilution, real-time PCR on 1 µl; background carry-over of the excess non-binder.
Chain of biotinylated Calmodulin-binding peptide, biotin-… (peptide, as listed by the source): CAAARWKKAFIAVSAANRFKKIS

As to “M.Hae III-ED-B fusion protein (covalently bonded to the linear DNA coding for it) (from UniProt P20589 1-330; P02751 1266-1356)”, the DNA molecules detected after selection (DNA molecules) turned out to be 1.4e+06.
